Tests used:
[1] = target: N2 neuraminidase from A/Washington/01/2007 (Influenza A virus A/Washington/01/2007); test: flow cytometry on NA-expressing cells
[2] = target: N2_A_Leningrad_134_17_57 (influenza A virus); test: flow cytometry on NA-expressing cells

B1: FNI19-v3 (antibody, V domains shown)
VH: QVQLVQSGAEVKKPGSSVKVSCKASEGTFNKYTISWVRQAPGQGLEWMGGIIPISGIANYAQKFQGRVAITADESTTTAYMELSSLRSEDSAVYYCATAVSDYFNRDLGWEDYYFPFWGQGTLVTVSS
VL: EIVMTQSPATLSVSPGARATLFCRASRSVSDNLAWYQQKPGQAPRLLIFGASTRATGVPARFSGSGSGTQFTLTISSLQSEDFAVYYCQHYNIWPPWTFGQGTKVEIK
MFI normalized vs wt [1]: 0.83 | MFI normalized vs wt [2]: 1.04

From patent US20240092876A1 (priority 2020, published 2024)
